Experimental data taken from publication PMC7913761.
Numbering of substitutions follows the chain as printed.

B1: ISRE (SPR) (dsDNA)
DNA 1: CAACTGAAACCGAGAAAGC
DNA 2: GCTTTCTCGGTTTCAGTTG
B2: EICE1 (dsDNA)
DNA 1: TAAAAGGAAGTGAAACCAAG
DNA 2: CTTGGTTTCACTTCCTTTTA
B3: AICE1 (dsDNA)
DNA 1: TAGTGCAGAAATGAGTCAGAGA
DNA 2: TCTCTGACTCATTTCTGCACTA
B4: AICE2 (dsDNA)
DNA 1: GAGGTTTCGGGATGACTAATACT
DNA 2: AGTATTAGTCATCCCGAAACCTC

Columns and labels:
Assay in all cases: SPR
[1] = molecular target: T1, IRF4 DBD L116R (human, UniProt Q15306 21-130, L116R)
T1 sequence: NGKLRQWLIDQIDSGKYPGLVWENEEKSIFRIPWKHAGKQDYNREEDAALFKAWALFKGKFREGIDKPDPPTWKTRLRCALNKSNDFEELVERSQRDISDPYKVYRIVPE

[2] = molecular target: T2, IRF4 DBD WT (human, UniProt Q15306 21-130)
T2 sequence: T1 sequence with R96L

[3] = molecular target: T3, IRF4 DBD K59A (human, UniProt Q15306 21-130, K59A)
T3 sequence: T1 sequence with K39A, R96L

| Binder | Kd [1] [nM] | Kd [2] [nM] | Kd [3] [nM] |
| --- | --- | --- | --- |
| B1 | 60 ± 40 | 250 ± 150 | 660 ± 100 |
| B2 | 60 ± 60 | 260 ± 70 | – |
| B3 | 2210 ± 30 | 2800 ± 480 | – |
| B4 | – | 1380 ± 510 | – |
